# Test results: paper PMC9200632 (2022)
# B1: aa682 (VHH)
# VHH: QVQLVESGGGLVQAGGSLRVSCTASVSTFSINALGWYRQAPGKARELVAAIGSDGTVYYTDSVKGRFTISRDNAKNTVSLQMSSLKPEDTAVYYCNAAGKRIGSDGSIWFAVASFGSWGQGTQVTVSS
# Target: T1, MBP–FlaA (C. jejuni flagellin FlaA, amino acids 177–482) (C. jejuni, biotinylated (EZ-Link NGS-PEG4-Biotin kit) in the BLI)
# T1 chain: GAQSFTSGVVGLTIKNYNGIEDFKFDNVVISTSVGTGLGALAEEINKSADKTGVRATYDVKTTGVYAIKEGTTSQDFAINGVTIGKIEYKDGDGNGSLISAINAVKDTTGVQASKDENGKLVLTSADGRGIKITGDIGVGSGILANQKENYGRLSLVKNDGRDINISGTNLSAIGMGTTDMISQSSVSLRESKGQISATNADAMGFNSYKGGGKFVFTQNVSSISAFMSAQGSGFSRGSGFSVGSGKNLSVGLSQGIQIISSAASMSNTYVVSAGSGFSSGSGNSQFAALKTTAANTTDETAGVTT
# Assay: BLI
binder,measurement,value
B1,koff,0.024 s⁻¹
